Results reported in paper PMC11271494, “Multi-domain interaction mediated strength-building in human α-actinin dimers unveiled by direct single-molecule quantification” (Nature Communications, 2024).

B1: human α-actinin 4 rod domain SR1–SR2–SR3–SR4 (domain or fragment, UniProt O43707 286-764, looked up)
chain: AVNQENEHLMEDYEKLASDLLEWIRRTIPWLEDRVPQKTIQEMQQKLEDFRDYRRVHKPPKVQEKCQLEINFNTLQTKLRLSNRPAFMPSEGKMVSDINNGWQHLEQAEKGYEEWLLNEIRRLERLDHLAEKFRQKASIHEAWTDGKEAMLKHRDYETATLSDIKALIRKHEAFESDLAAHQDRVEQIAAIAQELNELDYYDSHNVNTRCQKICDQWDALGSLTHSRREALEKTEKQLEAIDQLHLEYAKRAAPFNNWMESAMEDLQDMFIVHTIEEIEGLISAHDQFKSTLPDADREREAILAIHKEAQRIAESNHIKLSGSNPYTTVTPQIINSKWEKVQQLVPKRDHALLEEQSKQQSNEHLRRQFASQANVVGPWIQTKMEEIGRISIEMNGTLEDQLSHLKQYERSIVDYKPNLDLLEQQHQLIQEALIFDNKHTNYTMEHIRVGWEQLLTTIARTINEVENQILTRDAKGISQ
modifications: biotin on the AviTag (second rod of the construct)
notes: human α-actinin 4 (ACTN4), central rod domain of four spectrin-like repeats SR1–SR2–SR3–SR4; here the ACTN4 rod bears the biotinylated AviTag; also called (SR1–SR2–SR3–SR4)_(ACTN4); not shown: SpyTag003, N-terminal, kept; AviTag, N-terminal, kept
B2: human α-actinin 1 SR1–SR2–SR3 (domain or fragment, UniProt P12814 267-625, looked up)
chain: AVNQENEQLMEDYEKLASDLLEWIRRTIPWLENRVPENTMHAMQQKLEDFRDYRRLHKPPKVQEKCQLEINFNTLQTKLRLSNRPAFMPSEGRMVSDINNAWGCLEQVEKGYEEWLLNEIRRLERLDHLAEKFRQKASIHEAWTDGKEAMLRQKDYETATLSEIKALLKKHEAFESDLAAHQDRVEQIAAIAQELNELDYYDSPSVNARCQKICDQWDNLGALTQKRREALERTEKLLETIDQLYLEYAKRAAPFNNWMEGAMEDLQDTFIVHTIEEIQGLTTAHEQFKATLPDADKERLAILGIHNEVSKIVQTYHVNMAGTNPYTTITPQEINGKWDHVRQLVPRRDQALTEEHARQ
modifications: biotin on the AviTag
notes: human α-actinin 1 (ACTN1), spectrin-like repeats SR1–SR2–SR3 of the rod; Second half of the single-chain chimera Spy003–(SR2–SR3–SR4)ACTN1–(GS linker)–AviTag–(SR1–SR2–SR3)ACTN1; joined to m4 by the linker; also called (SR1–SR2–SR3)_(ACTN1); not shown: AviTag, N-terminal, kept
B3: human α-actinin 1 rod domain SR1–SR2–SR3–SR4 (shear–force constructs) (domain or fragment, UniProt P12814 267-745, looked up)
chain: AVNQENEQLMEDYEKLASDLLEWIRRTIPWLENRVPENTMHAMQQKLEDFRDYRRLHKPPKVQEKCQLEINFNTLQTKLRLSNRPAFMPSEGRMVSDINNAWGCLEQVEKGYEEWLLNEIRRLERLDHLAEKFRQKASIHEAWTDGKEAMLRQKDYETATLSEIKALLKKHEAFESDLAAHQDRVEQIAAIAQELNELDYYDSPSVNARCQKICDQWDNLGALTQKRREALERTEKLLETIDQLYLEYAKRAAPFNNWMEGAMEDLQDTFIVHTIEEIQGLTTAHEQFKATLPDADKERLAILGIHNEVSKIVQTYHVNMAGTNPYTTITPQEINGKWDHVRQLVPRRDQALTEEHARQQHNERLRKQFGAQANVIGPWIQTKMEEIGRISIEMHGTLEDQLSHLRQYEKSIVNYKPKIDQLEGDHQLIQEALIFDNKHTNYTMEHIRVGWEQLLTTIARTINEVENQILTRDAKGISQ
modifications: biotin on the AviTag (second rod of the homo-dimer construct)
notes: human α-actinin 1 (ACTN1), central rod domain of four spectrin-like repeats SR1–SR2–SR3–SR4; a full SR rod with the helical linker region has about 480 amino acids; Stood in single-chain chimeras: Spy003–(SR1–SR4)ACTN1–(GS linker, about 170 aa)–AviTag–(SR1–SR4)ACTN1 (homo-dimer; first rod bears SpyTag003, second rod the biotinylated AviTag) and Spy003–(SR1–SR4)ACTN1–(GS …)

Experiments:
[1] = target: Entamoeba histolytica α-actinin 2 rod SR1–SR2 (Entamoeba histolytica); experiment: single-molecule magnetic tweezers; shear–force geometry; same tethered single-chain constructs; force–jump cycles, dwell time until rupture at a target force, lifetime by exponential fit with bootstrap analysis; 1× PBS, 1% BSA, 1 mM DTT, 10 mM sodium L-ascorbate, 22 ± 1 °C
[2] = target: Entamoeba histolytica α-actinin 2 rod SR1–SR2 (Entamoeba histolytica); experiment: single-molecule magnetic tweezers; shear–force geometry; the two partners on one chain joined by a long flexible GS linker, tethered via SpyTag003 to a SpyCatcher-coated coverslip and via the biotinylated AviTag to a streptavidin/neutravidin bead; linear force-increase scans (5 pN/s; 1 pN/s for SR2–SR3:SR2–SR3; 1 and 5 pN/s for E. histolytica) and force-decrease scans (−0.1 pN/s); 1× PBS, 1% BSA, 1 mM DTT, 10 mM sodium L-ascorbate, 22 ± 1 °C
[3] = target: the molecule itself; experiment: single-molecule magnetic tweezers; shear–force geometry; same tethered single-chain constructs; force–jump cycles, dwell time until rupture at a target force, lifetime by exponential fit with bootstrap analysis; 1× PBS, 1% BSA, 1 mM DTT, 10 mM sodium L-ascorbate, 22 ± 1 °C
[4] = target: B3; experiment: as above; conditions: both partners purified
[5] = target: T1, human α-actinin 1 SR2–SR3–SR4 (human, UniProt P12814 385-745); experiment: as above; conditions: both partners purified
T1 construct: human α-actinin 1 (ACTN1), spectrin-like repeats SR2–SR3–SR4 of the rod; First half of the single-chain chimera Spy003–(SR2–SR3–SR4)ACTN1–(GS linker)–AviTag–(SR1–SR2–SR3)ACTN1; joined to m5 by the linker; also called (SR2–SR3–SR4)_(ACTN1); not shown: SpyTag003, N-terminal, kept

Molecule “Entamoeba histolytica α-actinin 2 rod SR1–SR2 (domain or fragment)” has a lifetime at forces <10 pN (second state) [1] greater than 10 s, a lifetime at forces <10 pN (third state) [1] greater than 1 s and a lifetime at forces <15 pN (strongest state) [1] greater than 100 s. For the same molecule, the peak rupture force (second state, 5 pN/s) [2] was 20 pN, the peak rupture force (strongest state, 5 pN/s) [2] was 33 pN and the rupture force (third state) [2] was 5 pN.

In the case of B1, the “lifetime within 40 pN (shear geometry)” value [3] is reported as greater than 100 s and the “lifetime within 40 pN (shear geometry)” value [4] is reported as greater than 100 s.

In the case of B2, the “fold decrease of the force-dependent lifetime against the full rod dimer (m1 with m1)” value [5] is reported as roughly 1000 fold.

For B3, the “lifetime within 40 pN (shear geometry)” value [3] was greater than 100 s.
